Assay results taken from patent US20110250237A1, “IMMUNOGENIC AMPHIPATHIC PEPTIDE COMPOSITIONS” (priority 2008, published 2011).

Assay: Differential scanning calorimetry of peptide and particles
Type: physicochemical
Details: normal saline, peptide 1.11 mg/ml, scanned 20° C. to 130° C.
Method: Differential scanning calorimetry is used to study the unfolding events associated with the peptide and particles. This technique is used to measure the amount of heat required to increase the temperature of the sample and reference, resulting in peaks at phase transition temperatures at which more heat is required by the samples to be maintained at the same temperature as the reference. In case of proteins the melting temperatures are determined at which half of the protein exists in an unfolded state.
The peptide of SEQ ID NO: 1 is used to form particles at peptide to lipid (POPC) molar ratios of 1:1.75, 1:3 and 1:7, the particles with peptide at concentration of 1.11 mg/ml and lipid at 0.55 mg/ml are used. The peptide alone and lipid alone are used as controls and the samples are scanned from 20° C. to 130° C.

Sequence: DWLKAFYDKVAEKLKEAFLA [peptide SEQ ID NO: 1, amphipathic peptide]
- phase transition: 50 °C
